The target in experiment [1] is T1, GM-CSF receptor, cognate for the human GM-CSF constructs (GM-CSF-Ra, R&D Systems) (UniProt P15509 23-320).
T1 construct: also called cognate GM-CSF receptor
T1 sequence (looked up): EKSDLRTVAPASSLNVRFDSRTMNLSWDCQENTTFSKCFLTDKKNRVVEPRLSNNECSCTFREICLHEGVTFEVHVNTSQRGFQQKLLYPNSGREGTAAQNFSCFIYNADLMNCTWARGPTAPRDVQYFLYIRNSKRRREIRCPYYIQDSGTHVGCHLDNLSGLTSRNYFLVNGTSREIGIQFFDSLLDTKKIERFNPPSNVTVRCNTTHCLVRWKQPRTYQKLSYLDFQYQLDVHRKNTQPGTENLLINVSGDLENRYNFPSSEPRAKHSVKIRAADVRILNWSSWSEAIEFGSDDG
As to the kind of experiment: SPR (Biacore), Fab captured on anti-human F(ab)2, GM-CSF receptor injected. On the technique in general: In SPR one partner is held on a chip, and binding of the other changes the refractive index at the surface.

In experiment [2] the target is T2, EPO-R (EPO receptor, R&D Systems) (UniProt P19235 25-250).
T2 sequence (looked up): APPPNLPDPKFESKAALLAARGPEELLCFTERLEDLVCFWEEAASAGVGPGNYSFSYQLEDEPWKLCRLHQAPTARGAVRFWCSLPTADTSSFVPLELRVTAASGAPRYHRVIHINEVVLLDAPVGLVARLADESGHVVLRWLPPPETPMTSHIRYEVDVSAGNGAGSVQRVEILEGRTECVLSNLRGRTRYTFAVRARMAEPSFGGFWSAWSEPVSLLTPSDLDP
The experiment is described as follows: SPR (Biacore), Fab captured on anti-human F(ab)2, EPO-R injected.

In experiment [3] the target is T3, GM-CSF receptor, cognate for the murine GM-CSF constructs (UniProt Q00941 30-327).
T3 construct: also called GM-CSF-Ra; cognate GM-CSF receptor
T3 sequence (looked up): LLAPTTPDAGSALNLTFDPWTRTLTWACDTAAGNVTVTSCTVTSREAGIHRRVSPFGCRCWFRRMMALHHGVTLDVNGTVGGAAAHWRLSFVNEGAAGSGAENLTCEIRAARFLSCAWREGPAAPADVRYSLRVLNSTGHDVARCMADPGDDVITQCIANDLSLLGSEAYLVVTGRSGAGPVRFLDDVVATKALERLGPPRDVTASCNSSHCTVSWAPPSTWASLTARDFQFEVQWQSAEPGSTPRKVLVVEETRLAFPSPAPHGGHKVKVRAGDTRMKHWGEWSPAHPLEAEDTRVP
As to the kind of experiment: SPR (Biacore), Fab captured on anti-human F(ab)2, GM-CSF receptor injected.

Experiment [4] concerns the target T4, IL-2-Rβ (IL-2 receptor β chain, R&D Systems) (UniProt P14784 27-239).
T4 construct: also called IL-2-sRβ
T4 sequence (looked up): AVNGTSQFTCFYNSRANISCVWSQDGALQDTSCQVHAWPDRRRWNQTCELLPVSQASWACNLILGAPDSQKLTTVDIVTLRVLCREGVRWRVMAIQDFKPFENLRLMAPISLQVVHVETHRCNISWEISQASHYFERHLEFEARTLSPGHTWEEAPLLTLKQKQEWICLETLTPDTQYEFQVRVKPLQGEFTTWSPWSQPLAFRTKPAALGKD
As to the kind of experiment: SPR (Biacore), Fab captured on anti-human F(ab)2, IL-2-Rβ injected.

The target in experiment [5] is Human serum albumin (HSA), Jackson ImmunoResearch catalog #009-000-051 (human, UniProt P02768 25-609). As to the kind of experiment: SPR (Biacore), fusion captured on anti-human F(ab)2, 1000 nM HSA injected alone or with 100 nM G-CSF-Rα.
The target of a further experiment is IL-6 (R&D Systems) (UniProt P05231 30-212, limits assumed). As to the kind of experiment: SPR (Biacore), fusion captured on anti-human F(ab)2, IL-6 alone injected.

B1: CA645 Fab (unmodified, wild type, anti-human serum albumin) (Fab, V domains shown)
VH: EVQLLESGGGLVQPGGSLRLSCAVSGIDLSNYAINWVRQAPGKGLEWIGIIWASGTTFYATWAKGRFTISRDNSKNTVYLQMNSLRAEDTAVYYCARTVPGYSTAPYFDLWGQGTLVTVSS
VL: DIQMTQSPSSVSASVGDRVTITCQSSPSVWSNFLSWYQQKPGKAPKLLIYEASKLTSGVPSRFSGSGSGTDFTLTISSLQPEDFATYYCGGGYSSISDTTFGGGTKVEIKR
notes: Control without insert polypeptide; also called unmodified CA645 Fab; wild type CA645 Fab
On to B1, for which the binding result in experiment [1] is “no binding (tested: 100 nM)”; in experiment [2], “no binding (tested: 50 nM)”; in experiment [3], “no binding (tested: 100 nM)”; in experiment [4], “no binding (tested: 100 nM)”.

B2: CA645/G-CSFFwk3 (CA645 Fab with human G-CSF inserted into framework 3 of the VH domain) (Fab)
heavy: EVQLLESGGGLVQPGGSLRLSCAVSGIDLSNYAINWVRQAPGKGLEWIGIIWASGTTFYATWAKGRFTISRDNSGGGGSATPLGPASSLPQSFLLKCLEQVRKIQGDGAALQEKLVSECATYKLCHPEELVLLGHSLGIPWAPLSSCPSQALQLAGCLSQLHSGLFLYQGLLQALEGISPELGPTLDTLQLDVADFATTIWQQMEELGMAPALQPTQGAMPAFASAFQRRAGGVLVASHLQSFLEVSYRVLRHLAQPSGGGGKNTVYLQMNSLRAEDTAVYYCARTVPGYSTAPYFDLWGQGTLVTVSSASTKGPSVFPLAPSSKSTSGGTAALGCLVKDYFPEPVTVSWNSGALTSGVHTFPAVLQSSGLYSLSSVVTVPSSSLGTQTYICNVNHKPSNTKVDKKVEPKSC
light: DIQMTQSPSSVSASVGDRVTITCQSSPSVWSNFLSWYQQKPGKAPKLLIYEASKLTSGVPSRFSGSGSGTDFTLTISSLQPEDFATYYCGGGYSSISDTTFGGGTKVEIKRTVAAPSVFIFPPSDEQLKSGTASVVCLLNNFYPREAKVQWKVDNALQSGNSQESVTEQDSKDSTYSLSSTLTLSKADYEKHKVYACEVTHQGLSSPVTKSFNRGEC
notes: also called CA645/G-CSF antibody fusion protein
In the case of B2, in experiment [5], the binding result is given as “binds”.

B3: CA645/VHH6Fwk3 (CA645 Fab with camelid VHH6 inserted into framework 3 of the VH domain) (bispecific antibody)
heavy: EVQLLESGGGLVQPGGSLRLSCAVSGIDLSNYAINWVRQAPGKGLEWIGIIWASGTTFYATWAKGRFTISRDNSGGGGSGGGGSDVQFVESGGGSVHAGGSLRLNCATSGYIYSTYCMGWFRQAPGKEREGVAHIYTNSGRTYYADSVKGRFTISQDNAKNTVYLQMNSLKPEDTAIYYCAARPSIRCASFSATEYKDWGQGTQVTVSSGGGGSGGGGSKNTVYLQMNSLRAEDTAVYYCARTVPGYSTAPYFDLWGQGTLVTVSSASTKGPSVFPLAPSSKSTSGGTAALGCLVKDYFPEPVTVSWNSGALTSGVHTFPAVLQSSGLYSLSSVVTVPSSSLGTQTYICNVNHKPSNTKVDKKVEPKSC
light: DIQMTQSPSSVSASVGDRVTITCQSSPSVWSNFLSWYQQKPGKAPKLLIYEASKLTSGVPSRFSGSGSGTDFTLTISSLQPEDFATYYCGGGYSSISDTTFGGGTKVEIKRTVAAPSVFIFPPSDEQLKSGTASVVCLLNNFYPREAKVQWKVDNALQSGNSQESVTEQDSKDSTYSLSSTLTLSKADYEKHKVYACEVTHQGLSSPVTKSFNRGEC
notes: also called CA645/VHH6 antibody fusion protein
B3: the binding result with IL-6 (R&D Systems) was “no binding (tested: 100 nM)”.

For the origin of these results see patent publication US20220073581A1 (UCB, published 2022).
